Experimental data: the supplement of paper PMC10567573

B1: LOXL2 (parent)
chain: FSPDGPSRFRKAYKPEQPLVRLRG

Variants of: B1
Assay: protein stability index of a GFP-peptide fusion (GPS, HEK-293T) (PSI 1-6); higher = more stable
Details: c terminus: a fixed tail appended
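Note: lentivirally expressed fusions sorted by FACS into six bins by GFP to DsRed ratio, PSI derived from sequencing read proportions per bin multiplied by bin number.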

Compared with FSPDGPSRFRKAGKPEQPLVRLRG [Y13G], FSPDGPSRFRKARKPEQPLVRLRG [Y13R] is higher in protein stability index: 2.06 for the first, 2.27 for the second.

First: FSPDGPSRFRKASKPEQPLVRLRG [Y13S]
Second: FSPDGPSRFRKAHKPEQPLVRLRG [Y13H]
The protein stability index of the first is higher: 2.44 for the first, 1.81 for the second.

First: FSPDGPSRFRKAQKPEQPLVRLRG [Y13Q]
Second: FSPDGPSRFRKAEKPEQPLVRLRG [Y13E]
The protein stability index of the first is higher: 2.38 for the first, 2.15 for the second.

Compared with FSPDGPSRFRKAKKPEQPLVRLRG [Y13K], FSPDGPSRFRKAPKPEQPLVRLRG [Y13P] is lower in protein stability index: 2.77 for the first, 2.55 for the second.

First: FSPDGPSRFRKAYKMEQPLVRLRG [P15M]
Second: FSPDGPSRFRKAYKAEQPLVRLRG [P15A]
The protein stability index of the first is higher: 2.79 for the first, 1.85 for the second.

Going from FSPDGPSRFRKAYKREQPLVRLRG [P15R] to FSPDGPSRFRKAYKYEQPLVRLRG [P15Y], the protein stability index falls from 2.88 to 1.6.

Compared with FSPDGPSRFRKAYKVEQPLVRLRG [P15V], FSPDGPSRFRKAYKDEQPLVRLRG [P15D] is lower in protein stability index: 2.28 for the first, 1.68 for the second.

Compared with FSPDGPSRFRKAYKWEQPLVRLRG [P15W], FSPDGPSRFRKAYKNEQPLVRLRG [P15N] is higher in protein stability index: 1.5 for the first, 2.52 for the second.

First: FSPDGPSRFRKAYKGEQPLVRLRG [P15G]
Second: FSPDGPSRFRKAYKLEQPLVRLRG [P15L]
The protein stability index of the first is lower: 2.48 for the first, 3.53 for the second.

Compared with FSPDGPSRFRKAYKKEQPLVRLRG [P15K], FSPDGPSRFRKAYKCEQPLVRLRG [P15C] is higher in protein stability index: 1.66 for the first, 3.13 for the second.

Compared with FSPDGPSRFRKAYKFEQPLVRLRG [P15F], FSPDGPSRFRKAYKQEQPLVRLRG [P15Q] is lower in protein stability index: 1.83 for the first, 1.7 for the second.

First: FSPDGPSRFRKAYKSEQPLVRLRG [P15S]
Second: FSPDGPSRFRKAYKTEQPLVRLRG [P15T]
The protein stability index of the first is higher: 3.74 for the first, 1.41 for the second.

Compared with FSPDGPSRFRKAYKEEQPLVRLRG [P15E], FSPDGPSRFRKAYKIEQPLVRLRG [P15I] is higher in protein stability index: 1.43 for the first, 2.07 for the second.

Going from FSPDGPSRFRKAYKHEQPLVRLRG [P15H] to FSPDGPSRFRPAYKPEQPLVRLRG [K11P], the protein stability index rises from 1.7 to 2.41.

First: FSPDGPSRFRLAYKPEQPLVRLRG [K11L]
Second: FSPDGPSRFREAYKPEQPLVRLRG [K11E]
The protein stability index of the first is lower: 2.31 for the first, 3.54 for the second.

Compared with FSPDGPSRFRFAYKPEQPLVRLRG [K11F], FSPDGPSRFRMAYKPEQPLVRLRG [K11M] is higher in protein stability index: 2.21 for the first, 2.98 for the second.

Compared with FSPDGPSRFRTAYKPEQPLVRLRG [K11T], FSPDGPSRFRHAYKPEQPLVRLRG [K11H] is lower in protein stability index: 3.77 for the first, 1.64 for the second.

First: FSPDGPSRFRIAYKPEQPLVRLRG [K11I]
Second: FSPDGPSRFRNAYKPEQPLVRLRG [K11N]
The protein stability index of the first is lower: 1.76 for the first, 2.7 for the second.

First: FSPDGPSRFRSAYKPEQPLVRLRG [K11S]
Second: FSPDGPSRFRQAYKPEQPLVRLRG [K11Q]
The protein stability index of the first is lower: 1.62 for the first, 3.17 for the second.

First: FSPDGPSRFRGAYKPEQPLVRLRG [K11G]
Second: FSPDGPSRFRYAYKPEQPLVRLRG [K11Y]
The protein stability index of the first is lower: 2.27 for the first, 2.6 for the second.

First: FSPDGPSRFRRAYKPEQPLVRLRG [K11R]
Second: FSPDGPSRFRVAYKPEQPLVRLRG [K11V]
The protein stability index of the first is higher: 2.72 for the first, 2.66 for the second.

Going from FSPDGPSRFRDAYKPEQPLVRLRG [K11D] to FSPDGPSRFRKAYKPEQMLVRLRG [P18M], the protein stability index rises from 1.28 to 2.

First: FSPDGPSRFRKAYKPEQDLVRLRG [P18D]
Second: FSPDGPSRFRKAYKPEQFLVRLRG [P18F]
The protein stability index of the first is higher: 2.04 for the first, 1.11 for the second.

Compared with FSPDGPSRFRKAYKPEQVLVRLRG [P18V], FSPDGPSRFRKAYKPEQCLVRLRG [P18C] is lower in protein stability index: 2.06 for the first, 1.52 for the second.

First: FSPDGPSRFRKAYKPEQKLVRLRG [P18K]
Second: FSPDGPSRFRKAYKPEQQLVRLRG [P18Q]
The protein stability index of the first is higher: 2.38 for the first, 2.17 for the second.

Compared with FSPDGPSRFRKAYKPEQALVRLRG [P18A], FSPDGPSRFRKAYKPEQGLVRLRG [P18G] is lower in protein stability index: 2.07 for the first, 1.66 for the second.

Compared with FSPDGPSRFRKAYKPEQNLVRLRG [P18N], FSPDGPSRFRKAYKPEQILVRLRG [P18I] is lower in protein stability index: 2.75 for the first, 1.95 for the second.

First: FSPDGPSRFRKAYKPEQLLVRLRG [P18L]
Second: FSPDGPSRFRKAYKPEQRLVRLRG [P18R]
The protein stability index of the first is higher: 1.89 for the first, 1.86 for the second.

Going from FSPDGPSRFRKAYKPEQTLVRLRG [P18T] to FSPDGPSRFRKAYKPEQELVRLRG [P18E], the protein stability index rises from 1.42 to 1.82.

First: FSPDGPSRFRKAYKPEQSLVRLRG [P18S]
Second: FSPDGPSRFRKAYKPEQHLVRLRG [P18H]
The protein stability index of the first is lower: 1.8 for the first, 2.03 for the second.

Going from FSPDGPSRFKKAYKPEQPLVRLRG [R10K] to FSPDGPSRFLKAYKPEQPLVRLRG [R10L], the protein stability index rises from 1.75 to 1.97.

First: FSPDGPSRFPKAYKPEQPLVRLRG [R10P]
Second: FSPDGPSRFGKAYKPEQPLVRLRG [R10G]
The protein stability index of the first is higher: 2.14 for the first, 1.78 for the second.

First: FSPDGPSRFEKAYKPEQPLVRLRG [R10E]
Second: FSPDGPSRFQKAYKPEQPLVRLRG [R10Q]
The protein stability index of the first is higher: 2.5 for the first, 1.99 for the second.

Compared with FSPDGPSRFDKAYKPEQPLVRLRG [R10D], FSPDGPSRFSKAYKPEQPLVRLRG [R10S] is higher in protein stability index: 2.2 for the first, 3.35 for the second.

Going from FSPDGPSRFYKAYKPEQPLVRLRG [R10Y] to FSPDGPSRFMKAYKPEQPLVRLRG [R10M], the protein stability index rises from 1.98 to 2.1.

Compared with FSPDGPSRFFKAYKPEQPLVRLRG [R10F], FSPDGPSRFCKAYKPEQPLVRLRG [R10C] is lower in protein stability index: 4 for the first, 3.46 for the second.

Compared with FSPDGPSRFNKAYKPEQPLVRLRG [R10N], FSPDGPSRFIKAYKPEQPLVRLRG [R10I] is higher in protein stability index: 1.94 for the first, 2.8 for the second.

Compared with FSPDGPSRFVKAYKPEQPLVRLRG [R10V], FSPDGPSRFHKAYKPEQPLVRLRG [R10H] is lower in protein stability index: 2.46 for the first, 1.02 for the second.

Compared with FSPDGPSRFRKWYKPEQPLVRLRG [A12W], FSPDGPSRFRKDYKPEQPLVRLRG [A12D] is lower in protein stability index: 4.25 for the first, 2.03 for the second.

Going from FSPDGPSRFRKFYKPEQPLVRLRG [A12F] to FSPDGPSRFRKVYKPEQPLVRLRG [A12V], the protein stability index rises from 1.57 to 2.3.

Compared with FSPDGPSRFRKKYKPEQPLVRLRG [A12K], FSPDGPSRFRKPYKPEQPLVRLRG [A12P] is higher in protein stability index: 2 for the first, 2.13 for the second.

First: FSPDGPSRFRKGYKPEQPLVRLRG [A12G]
Second: FSPDGPSRFRKIYKPEQPLVRLRG [A12I]
The protein stability index of the first is lower: 2.44 for the first, 3.12 for the second.

Going from FSPDGPSRFRKTYKPEQPLVRLRG [A12T] to FSPDGPSRFRKNYKPEQPLVRLRG [A12N], the protein stability index falls from 2.59 to 2.11.

Compared with FSPDGPSRFRKQYKPEQPLVRLRG [A12Q], FSPDGPSRFRKCYKPEQPLVRLRG [A12C] is lower in protein stability index: 1.96 for the first, 1.88 for the second.

First: FSPDGPSRFRKHYKPEQPLVRLRG [A12H]
Second: FSPDGPSRFRKLYKPEQPLVRLRG [A12L]
The protein stability index of the first is lower: 1.8 for the first, 2.35 for the second.

Compared with FSPDGPSRFRKYYKPEQPLVRLRG [A12Y], FSPDGPSRFRKSYKPEQPLVRLRG [A12S] is lower in protein stability index: 1.91 for the first, 1.9 for the second.

First: FSPDGPSRFRKEYKPEQPLVRLRG [A12E]
Second: FSPDGPSRFRKRYKPEQPLVRLRG [A12R]
The protein stability index of the first is higher: 2.15 for the first, 1.42 for the second.
